Like-named read-outs stand apart in the source and are kept apart here.
Experiments:
[1] = target: T1, ScPif1p (237-780) (Saccharomyces cerevisiae, UniProt P07271 237-780); experiment: crystal structure
T1 sequence: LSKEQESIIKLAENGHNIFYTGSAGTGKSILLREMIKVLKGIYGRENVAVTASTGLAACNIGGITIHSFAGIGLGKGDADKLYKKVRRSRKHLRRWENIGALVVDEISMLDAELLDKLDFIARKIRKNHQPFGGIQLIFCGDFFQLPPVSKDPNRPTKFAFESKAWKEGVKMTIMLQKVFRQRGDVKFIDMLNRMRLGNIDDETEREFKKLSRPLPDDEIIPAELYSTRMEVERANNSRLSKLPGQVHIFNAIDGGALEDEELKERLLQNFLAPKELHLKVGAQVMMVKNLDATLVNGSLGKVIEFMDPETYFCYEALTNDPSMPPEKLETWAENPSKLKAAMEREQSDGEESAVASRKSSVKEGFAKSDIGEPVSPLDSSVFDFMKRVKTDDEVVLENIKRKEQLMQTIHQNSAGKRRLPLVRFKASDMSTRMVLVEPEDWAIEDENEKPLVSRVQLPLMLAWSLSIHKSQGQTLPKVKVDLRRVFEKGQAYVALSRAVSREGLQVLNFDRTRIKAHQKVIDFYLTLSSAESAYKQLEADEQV

[2] = target: T1, ScPif1p (237-780); experiment: fluorescence anisotropy
[3] = target: T1, ScPif1p (237-780); experiment: SEC-SAXS, gel filtration
[4] = target: T2, ScPif1p H303G/H705G (Saccharomyces cerevisiae, UniProt P07271 237-780, H303G;H705G); experiment: fluorescence anisotropy
T2 sequence: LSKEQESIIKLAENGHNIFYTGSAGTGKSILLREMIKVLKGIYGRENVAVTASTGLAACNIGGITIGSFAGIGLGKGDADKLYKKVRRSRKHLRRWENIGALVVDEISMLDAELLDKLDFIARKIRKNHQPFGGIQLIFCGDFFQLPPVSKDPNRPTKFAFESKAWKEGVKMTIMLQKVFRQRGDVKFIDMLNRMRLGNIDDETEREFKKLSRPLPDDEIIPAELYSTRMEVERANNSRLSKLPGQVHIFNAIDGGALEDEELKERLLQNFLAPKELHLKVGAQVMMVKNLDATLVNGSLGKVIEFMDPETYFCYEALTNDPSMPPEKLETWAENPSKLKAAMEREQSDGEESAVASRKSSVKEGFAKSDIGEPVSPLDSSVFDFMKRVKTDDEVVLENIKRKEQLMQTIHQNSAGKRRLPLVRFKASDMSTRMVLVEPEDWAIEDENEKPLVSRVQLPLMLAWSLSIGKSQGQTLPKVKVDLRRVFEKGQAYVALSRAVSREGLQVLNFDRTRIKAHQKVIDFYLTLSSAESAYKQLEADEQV

[5] = target: T1, ScPif1p (237-780); experiment: fluorescence anisotropy; remark: listed apart in the source
[6] = target: T1, ScPif1p (237-780); experiment: SEC-SAXS, gel filtration; remark: listed apart in the source
[7] = target: T1, ScPif1p (237-780); experiment: crystal structure; remark: listed apart in the source
[8] = target: T1, ScPif1p (237-780); experiment: SEC-SAXS

B1: Poly(T3G3T2) (ssDNA)
DNA: TTTGGGTT
B1: binds [1].

B2: Poly(T12) (ssDNA)
DNA: TTTTTTTTTTTT
Binder B2 has a Kd [2] of 15.1 nM.

B3: 3G4 (structured_DNA)
DNA: AGGGTTAGGGTTAGGGTTAGGG
B3: binds [3].

B4: F-RNA12 (text: Poly(U12)) (ssRNA)
RNA: CUCUGCUCGACG
Binder B4 has a Kd [4] of 70.5 nM and a Kd [5] of 163 nM.

B5: Poly(G3T5) (ssDNA)
DNA: GGGTTTTT
B5: binds [1].

B6: 8T3G4 (structured_DNA)
DNA: TTTTTTTTGGGTGGGTGGGTGGGT
B6: binds [6].

B7: Poly(T8) (ssDNA)
DNA: TTTTTTTT
B7: binds [7].

B8: GR11 (ssDNA)
DNA: GTGTGGTGTGG
B8: binds [8].

Reference: article PMC5814829
